Experimental data as given in IntAct's records for PubMed 18334649.

B1: Receptor tyrosine-protein kinase erbB-4 (Homo sapiens), Q15303 (parent)
chain: MKPATGLWVWVSLLVAAGTVQPSDSQSVCAGTENKLSSLSDLEQQYRALRKYYENCEVVMGNLEITSIEHNRDLSFLRSVREVTGYVLVALNQFRYLPLENLRIIRGTKLYEDRYALAIFLNYRKDGNFGLQELGLKNLTEILNGGVYVDQNKFLCYADTIHWQDIVRNPWPSNLTLVSTNGSSGCGRCHKSCTGRCWGPTENHCQTLTRTVCAEQCDGRCYGPYVSDCCHRECAGGCSGPKDTDCFACMNFNDSGACVTQCPQTFVYNPTTFQLEHNFNAKYTYGAFCVKKCPHNFVVDSSSCVRACPSSKMEVEENGIKMCKPCTDICPKACDGIGTGSLMSAQTVDSSNIDKFINCTKINGNLIFLVTGIHGDPYNAIEAIDPEKLNVFRTVREITGFLNIQSWPPNMTDFSVFSNLVTIGGRVLYSGLSLLILKQQGITSLQFQSLKEISAGNIYITDNSNLCYYHTINWTTLFSTINQRIVIRDNRKAENCTAEGMVCNHLCSSDGCWGPGPDQCLSCRRFSRGRICIESCNLYDGEFREFENGSICVECDPQCEKMEDGLLTCHGPGPDNCTKCSHFKDGPNCVEKCPDGLQGANSFIFKYADPDRECHPCHPNCTQGCNGPTSHDCIYYPWTGHSTLPQHARTPLIAAGVIGGLFILVIVGLTFAVYVRRKSIKKKRALRRFLETELVEPLTPSGTAPNQAQLRILKETELKRVKVLGSGAFGTVYKGIWVPEGETVKIPVAIKILNETTGPKANVEFMDEALIMASMDHPHLVRLLGVCLSPTIQLVTQLMPHGCLLEYVHEHKDNIGSQLLLNWCVQIAKGMMYLEERRLVHRDLAARNVLVKSPNHVKITDFGLARLLEGDEKEYNADGGKMPIKWMALECIHYRKFTHQSDVWSYGVTIWELMTFGGKPYDGIPTREIPDLLEKGERLPQPPICTIDVYMVMVKCWMIDADSRPKFKELAAEFSRMARDPQRYLVIQGDDRMKLPSPNDSKFFQNLLDEEDLEDMMDAEEYLVPQAFNIPPPIYTSRARIDSNRSEIGHSPPPAYTPMSGNQFVYRDGGFAAEQGVSVPYRAPTSTIPEAPVAQGATAEIFDDSCCNGTLRKPVAPHVQEDSSTQRYSADPTVFAPERSPRGELDEEGYMTPMRDKPKQEYLNPVEENPFVSRRKNGDLQALDNPEYHNASNGPPKAEDEYVNEPLYLNTFANTLGKAEYLKNNILSMPEKAKKAFDNPDYWNHSLPPRSTLQHPDYLQEYSTKYFYKQNGRIRPIVAENPEYLSEFSLKPGTVLPPPPYRHRNTVV

Variants of: B1
Details: with ITCH

Variant | effect of a mutation on the interaction
P1054A | disrupting interaction
Y1056F | disrupting interaction
